Measured values: PMC8794255, “Small molecule inhibitor of Igf2bp1 represses Kras and a pro-oncogenic phenotype in cancer cells” (RNA Biology, 2021)

Key:
Igf2bp1 (human) [1] = biological target: Igf2bp1 (human) (UniProt Q9NZI8); experiment: competition; conditions: MST/EMSA: 10 mM Tris pH 7.5, 100 mM NaCl, 0.1 mM EDTA, IGEPAL, tRNA, heparin, 0.5-2 mM DTT, room temperature (MST protein in PBST mixed 1:1); FP: 10 mM Tris pH …
Igf2bp1 (human) [2] = experiment: MST; conditions: MST/EMSA: 10 mM Tris pH 7.5, 100 mM NaCl, 0.1 mM EDTA, IGEPAL, tRNA, heparin, 0.5-2 mM DTT, room temperature (MST protein in PBST mixed 1:1), FP: 10 mM Tris pH …
Igf2bp1 KH34 (human) = experiment: MST; conditions: MST/EMSA: 10 mM Tris pH 7.5, 100 mM NaCl, 0.1 mM EDTA, IGEPAL, tRNA, heparin, 0.5-2 mM DTT, room temperature (MST protein in PBST mixed 1:1); FP: 10 mM Tris pH …

Chain of Igf2bp1 (human) (UniProt Q9NZI8) (Q9NZI8 whole entry): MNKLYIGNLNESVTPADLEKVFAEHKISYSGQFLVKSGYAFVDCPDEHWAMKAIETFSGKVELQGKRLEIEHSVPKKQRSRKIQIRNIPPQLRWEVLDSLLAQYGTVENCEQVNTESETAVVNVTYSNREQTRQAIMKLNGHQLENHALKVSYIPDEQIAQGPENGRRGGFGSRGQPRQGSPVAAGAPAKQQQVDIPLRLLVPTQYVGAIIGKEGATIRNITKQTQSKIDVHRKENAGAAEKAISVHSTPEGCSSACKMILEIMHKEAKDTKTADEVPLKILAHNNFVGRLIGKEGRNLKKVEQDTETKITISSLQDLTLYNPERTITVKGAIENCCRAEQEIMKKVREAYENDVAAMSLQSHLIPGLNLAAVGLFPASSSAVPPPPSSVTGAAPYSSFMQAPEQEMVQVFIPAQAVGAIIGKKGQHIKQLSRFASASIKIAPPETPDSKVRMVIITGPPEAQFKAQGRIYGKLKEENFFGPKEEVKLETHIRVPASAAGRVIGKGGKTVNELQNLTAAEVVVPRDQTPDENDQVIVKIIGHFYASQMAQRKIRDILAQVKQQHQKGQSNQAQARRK

Substance	binding (Igf2bp1 (human) [1])	Kd (Igf2bp1 (human) [2]; 50 uM 7773)	Kd (Igf2bp1 (human) [2]; 100 uM 7773)	Kd (Igf2bp1 (human) [2])	Kd (Igf2bp1 (human) [2]; no compound)	Kd (Igf2bp1 KH34 (human))
GGGUGAGGAGUACAGUGCAAUGAGGGACCAGUACAUGAGGACUGGGGAGGGCUUUCUUUGUGUAUUUGCCAUAAAUAAUACUAAAUCAUUUGAAGAUAUUCACCAUUAUAGAGAACAAAUUAAAAGAGUUAAGGACUCUGAAGAUGUACCUAUGGUCCUAGUAGGAAAUAAAUGUGAUUUGCCUUCUAGAACAGUAGACACAA [Kras 2 RNA]	binds more weakly	–	–	–	–	–
Kras 6 RNA	–	63 nM	120 nM	20 nM	56 nM	200 nM
